Measured values as given in publication PMC7822889.
Values joined by “and” are separate entries in the source; they are usually repeats but may differ in a detail not shown here. Identical values can stand only once.

Target: SpyCatcher003-mi3 VLP

In the case of “SpyTag-RBD (from UniProt P0DTC2 331-529) (domain or fragment)”, the display efficiency is reported as 93%, the display efficiency (1:1 molar ratio) is reported as 64% and the stoichiometry N is reported as 56 RBDs per VLP and 38 RBD per VLP.
